This passage reports Kd results from publication PMC9054013, “FCHO controls AP2’s initiating role in endocytosis through a PtdIns(4,5)P2-dependent switch” (Science Advances, 2022).

The target in the experiment is T1, Cμ2 (μ2 residues 160 to 435), P84092.
T1 chain: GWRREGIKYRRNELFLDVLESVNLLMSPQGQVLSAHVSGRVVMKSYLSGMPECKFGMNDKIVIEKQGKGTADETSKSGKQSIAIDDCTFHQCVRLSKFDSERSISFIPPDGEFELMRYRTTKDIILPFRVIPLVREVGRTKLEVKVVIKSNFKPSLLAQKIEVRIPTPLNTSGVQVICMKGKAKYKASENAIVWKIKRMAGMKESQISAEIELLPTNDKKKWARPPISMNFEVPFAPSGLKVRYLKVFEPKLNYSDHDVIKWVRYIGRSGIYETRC
The experiment can be described thus: ITC. The settings on record: chain shown with the change;; parent: 25 ± 1 µM.

B1: FCHO2-N1+N2 (ITC), Q0JRZ9-1 Y340S (protein)
chain: NIPDVDEEGYSIKPETNQNDTKENHFSSSSDSDSEDEEPKKYRIEIKPMHPNNSHHTMASLDELKVSIGNITLSPAISRHS
B1: the Kd turned out to be 54 µM.
As for NIPDVDAAGYSIAPETNQNDTKENHFYSSSDSDSEDEEPKKYR [FCHO2-N1+N2 (ITC), Q0JRZ9-1 E320A; E321A; K326A], the Kd worked out at 110 µM.

A word on the Kd: it is the equilibrium constant for the complex coming apart.
